Data from patent publication US20090271896A1 (SAMUEL ROBERTS NOBLE FOUNDATION, published 2009).

Legend:
[1] = biological target: T1, AtVIP2 (Arabidopsis VirE2-Interacting Protein 2), largest cDNA clone in pGAD424 (Arabidopsis thaliana, UniProt Q9FPW4 59-614); test: yeast two-hybrid, HIS3 and beta-galactosidase reporters
T1 construct: also called At5g59710; GenBank AF295433
T1 sequence: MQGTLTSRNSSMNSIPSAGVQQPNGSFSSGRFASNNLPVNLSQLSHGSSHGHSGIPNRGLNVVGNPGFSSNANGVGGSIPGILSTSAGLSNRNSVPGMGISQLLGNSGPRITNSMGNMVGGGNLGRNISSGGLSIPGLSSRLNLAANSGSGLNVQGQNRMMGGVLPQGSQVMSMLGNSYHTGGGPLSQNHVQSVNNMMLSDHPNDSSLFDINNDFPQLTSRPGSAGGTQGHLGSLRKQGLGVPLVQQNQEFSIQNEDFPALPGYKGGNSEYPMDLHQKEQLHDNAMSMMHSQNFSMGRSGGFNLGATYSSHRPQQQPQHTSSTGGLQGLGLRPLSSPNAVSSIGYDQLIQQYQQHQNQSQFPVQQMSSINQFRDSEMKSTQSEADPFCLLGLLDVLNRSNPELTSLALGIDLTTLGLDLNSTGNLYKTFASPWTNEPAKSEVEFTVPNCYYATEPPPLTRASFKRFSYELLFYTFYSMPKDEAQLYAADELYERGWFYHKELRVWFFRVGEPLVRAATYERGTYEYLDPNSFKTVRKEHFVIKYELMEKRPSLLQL

[2] = biological target: T2, NbVIP2 (N. benthamiana VIP2) in pGAD424 (Nicotiana benthamiana, UniProt Q52JK6 1-603); test: yeast two-hybrid, growth on triple dropout (-Leu/-Trp/-His) plates
T2 construct: also called pGAD-NbVIP2; GenBank DQ000202
T2 sequence: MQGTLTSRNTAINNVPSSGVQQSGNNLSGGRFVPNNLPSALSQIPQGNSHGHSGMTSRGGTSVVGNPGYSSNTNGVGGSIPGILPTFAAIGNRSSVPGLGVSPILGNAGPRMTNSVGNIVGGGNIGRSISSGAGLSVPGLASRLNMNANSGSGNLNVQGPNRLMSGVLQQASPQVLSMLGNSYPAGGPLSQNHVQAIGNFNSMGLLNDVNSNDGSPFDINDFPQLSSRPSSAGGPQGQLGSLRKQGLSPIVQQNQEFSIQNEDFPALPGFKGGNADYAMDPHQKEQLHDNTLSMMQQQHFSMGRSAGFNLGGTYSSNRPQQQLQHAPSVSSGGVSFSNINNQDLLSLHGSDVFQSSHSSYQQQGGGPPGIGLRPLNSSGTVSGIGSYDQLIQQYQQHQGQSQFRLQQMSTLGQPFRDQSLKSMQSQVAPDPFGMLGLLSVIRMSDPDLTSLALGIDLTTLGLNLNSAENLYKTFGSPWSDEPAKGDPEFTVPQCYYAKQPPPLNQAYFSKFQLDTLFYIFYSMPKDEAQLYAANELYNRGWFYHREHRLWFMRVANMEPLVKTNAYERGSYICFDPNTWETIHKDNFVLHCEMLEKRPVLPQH

B1: human lamin C (other)
chain: SEEVVSREVSGIKAAYEAELGDARKTLDSVAKERARLQLELSKVREEFKELKARNTKKEGDLIAAQARLKDLEALLNSKEAALSTALSEKRTLEGELHDLRGQVAKLEAALGEAKKQLQDEMLRRVDAENRLQTMKEELDFQKNIYSEELRETKRRHETRLVEID
notes: also called pSTT-LaminC
binding result [1]: no binding | binding result [2]: no binding
